The data set relates to Escherichia coli TOP10. Nature of the data set: shrunken log2 fold change of peptide-encoding DNA abundance (4.5 h post-induction vs induction); higher = less antimicrobial activity (less host growth inhibition). The conditions noted are these: time post-induction: 4.5 h; library: site-saturation at positions 5, 18, 19, 20.
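Also: peptides expressed intracellularly from a pBAD plasmid library in pooled LB shake-flask culture, induced with 0.3% L-arabinose, DNA abundance read by NGS, three biological replicates, DESeq2 with apeglm shrinkage.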

RRIRDRPPRLPRPRPRPTMEPRP: the “shrunken log2 fold change” value turned out to be 0.335. In the case of RRIRDRPPRLPRPRPRPNHYPRP, the “shrunken log2 fold change” value is -0.459. RRIRMRPPRLPRPRPRPWSAPRP: the “shrunken log2 fold change” value is 0.149. Under RRIRTRPPRLPRPRPRPQLVPRP stands 0.0727; under RRIRHRPPRLPRPRPRPGLVPRP, 0.0437; under RRIRSRPPRLPRPRPRPGIEPRP, 0.158. With RRIRARPPRLPRPRPRPRDDPRP the figure was 0.647. With RRIRRRPPRLPRPRPRPGIWPRP the figure was 0.455; with RRIRDRPPRLPRPRPRPRQWPRP, 0.36; with RRIRARPPRLPRPRPRPMLPPRP, 0.425. For RRIRRRPPRLPRPRPRPHMPPRP, the “shrunken log2 fold change” value is -0.037. With RRIRLRPPRLPRPRPRPTFMPRP the figure was -0.305; with RRIRWRPPRLPRPRPRPYYMPRP, -0.258. Under RRIRLRPPRLPRPRPRPLKMPRP stands 1.29; under RRIRSRPPRLPRPRPRPFPFPRP, -0.187; under RRIRGRPPRLPRPRPRPWTAPRP, 0.172.

With RRIRIRPPRLPRPRPRPNYRPRP, the “shrunken log2 fold change” value was -0.00601.

Turning to RRIRDRPPRLPRPRPRPWMCPRP, the “shrunken log2 fold change” value was -0.0722. Under RRIRIRPPRLPRPRPRPNFDPRP stands 0.235.

RRIRLRPPRLPRPRPRPFDWPRP: the “shrunken log2 fold change” value is -0.133. As to RRIRDRPPRLPRPRPRPNFRPRP, the “shrunken log2 fold change” value worked out at 0.267.

With RRIRYRPPRLPRPRPRPNLQPRP, the “shrunken log2 fold change” value is -0.614.

Turning to RRIRRRPPRLPRPRPRPQSGPRP, the “shrunken log2 fold change” value turned out to be 0.121. With RRIRKRPPRLPRPRPRPFHTPRP the figure was -0.0289; with RRIRTRPPRLPRPRPRPVSEPRP, 0.135; with RRIRNRPPRLPRPRPRPIFCPRP, -0.0368. Regarding RRIRPRPPRLPRPRPRPGDQPRP, the “shrunken log2 fold change” value was 3.33. With RRIRGRPPRLPRPRPRPAYFPRP the figure was 0.235. Under RRIRLRPPRLPRPRPRPGGQPRP stands 0.319. Under RRIRYRPPRLPRPRPRPPREPRP stands -0.0166. For RRIRHRPPRLPRPRPRPWQHPRP, the “shrunken log2 fold change” value was -0.0597. For the sequence RRIRFRPPRLPRPRPRPEYDPRP, the “shrunken log2 fold change” value turned out to be 0.0271. For the sequence RRIRKRPPRLPRPRPRPCYTPRP, the “shrunken log2 fold change” value was -0.0178.

As for RRIRERPPRLPRPRPRPKYNPRP, the “shrunken log2 fold change” value was -0.7. Under RRIRFRPPRLPRPRPRPVLSPRP stands -0.0531; under RRIRMRPPRLPRPRPRPDPFPRP, 0.0255; under RRIRSRPPRLPRPRPRPFWVPRP, 0.106. RRIRERPPRLPRPRPRPFVQPRP: the “shrunken log2 fold change” value is -0.386. Regarding RRIRMRPPRLPRPRPRPAKRPRP, the “shrunken log2 fold change” value was found to be 1.21.

RRIRCRPPRLPRPRPRPYDPPRP: the “shrunken log2 fold change” value is -0.914. On to RRIRARPPRLPRPRPRPPEPPRP, for which the “shrunken log2 fold change” value was determined as 0.686. Under RRIRKRPPRLPRPRPRPLLAPRP stands 0.833.

As to RRIRTRPPRLPRPRPRPEKDPRP, the “shrunken log2 fold change” value was -0.271. Consider RRIRCRPPRLPRPRPRPMTTPRP, for which the “shrunken log2 fold change” value is 0.151. Under RRIRIRPPRLPRPRPRPFEMPRP stands -0.22; under RRIRERPPRLPRPRPRPHWKPRP, -0.0167. Under RRIRGRPPRLPRPRPRPVVPPRP stands 0.338; under RRIRERPPRLPRPRPRPMRIPRP, 0.257; under RRIRHRPPRLPRPRPRPKQNPRP, 0.139.

In the case of RRIRERPPRLPRPRPRPWAMPRP, the “shrunken log2 fold change” value was -0.129. For RRIRFRPPRLPRPRPRPVWLPRP, the “shrunken log2 fold change” value was -0.0732.

As to RRIRRRPPRLPRPRPRPECLPRP, the “shrunken log2 fold change” value was determined as 0.635. On to RRIRARPPRLPRPRPRPPQDPRP, for which the “shrunken log2 fold change” value came to 1.13.

Regarding RRIRCRPPRLPRPRPRPHTSPRP, the “shrunken log2 fold change” value was -0.498. With RRIRRRPPRLPRPRPRPKCEPRP the figure was 0.0268; with RRIRKRPPRLPRPRPRPWFDPRP, -0.0566. Under RRIRWRPPRLPRPRPRPFIAPRP stands -0.291; under RRIRGRPPRLPRPRPRPWWKPRP, 0.0639; under RRIRHRPPRLPRPRPRPFHRPRP, 0.00911. RRIRTRPPRLPRPRPRPDNVPRP: the “shrunken log2 fold change” value is -0.881.

On to RRIRSRPPRLPRPRPRPEVNPRP, for which the “shrunken log2 fold change” value came to 0.426. With RRIRMRPPRLPRPRPRPHHMPRP the figure was -0.321; with RRIRKRPPRLPRPRPRPQWSPRP, 0.00166; with RRIRPRPPRLPRPRPRPRAPPRP, 0.683. With RRIRARPPRLPRPRPRPEIQPRP the figure was 1.71. In the case of RRIRMRPPRLPRPRPRPNKHPRP, the “shrunken log2 fold change” value was -0.158.

Regarding RRIRHRPPRLPRPRPRPEFLPRP, the “shrunken log2 fold change” value is -0.0472. Under RRIRHRPPRLPRPRPRPVRIPRP stands 0.0159.

With RRIRHRPPRLPRPRPRPTHDPRP, the “shrunken log2 fold change” value came to 0.124. For RRIRHRPPRLPRPRPRPEQNPRP, the “shrunken log2 fold change” value turned out to be 0.0816.

For RRIRSRPPRLPRPRPRPASTPRP, the “shrunken log2 fold change” value is -0.16. In the case of RRIRFRPPRLPRPRPRPPFAPRP, the “shrunken log2 fold change” value was 0.423.

With RRIRARPPRLPRPRPRPFYIPRP, the “shrunken log2 fold change” value is -0.309. Turning to RRIRHRPPRLPRPRPRPWDRPRP, the “shrunken log2 fold change” value is -0.0232. Under RRIRERPPRLPRPRPRPYWGPRP stands -0.346; under RRIRDRPPRLPRPRPRPQFQPRP, -0.145; under RRIRPRPPRLPRPRPRPKSYPRP, -0.0208.

Turning to RRIRTRPPRLPRPRPRPVETPRP, the “shrunken log2 fold change” value is 0.306. On to RRIRTRPPRLPRPRPRPICSPRP, for which the “shrunken log2 fold change” value is -0.0969. Under RRIRARPPRLPRPRPRPICPPRP stands 0.0597; under RRIRFRPPRLPRPRPRPHGGPRP, 0.0953; under RRIRSRPPRLPRPRPRPFDHPRP, -0.488. Under RRIRVRPPRLPRPRPRPFSFPRP stands 1.26; under RRIRYRPPRLPRPRPRPAMSPRP, -0.0191; under RRIRSRPPRLPRPRPRPRVRPRP, 0.217. Consider RRIRRRPPRLPRPRPRPKIPPRP, for which the “shrunken log2 fold change” value is 0.0427. Regarding RRIRWRPPRLPRPRPRPMEHPRP, the “shrunken log2 fold change” value was 0.107.

In the case of RRIRCRPPRLPRPRPRPVFSPRP, the “shrunken log2 fold change” value is -0.385. Under RRIRERPPRLPRPRPRPYSFPRP stands -0.0431. As for RRIRIRPPRLPRPRPRPEYYPRP, the “shrunken log2 fold change” value is -0.198. Under RRIRPRPPRLPRPRPRPLQHPRP stands -0.17. As to RRIRCRPPRLPRPRPRPTYCPRP, the “shrunken log2 fold change” value is -0.279.

RRIRHRPPRLPRPRPRPCKAPRP: the “shrunken log2 fold change” value is -0.0317.

As for RRIRSRPPRLPRPRPRPGSEPRP, the “shrunken log2 fold change” value was determined as 0.593. As to RRIRWRPPRLPRPRPRPMITPRP, the “shrunken log2 fold change” value is 0.0975. Under RRIRHRPPRLPRPRPRPRTHPRP stands -0.137; under RRIRIRPPRLPRPRPRPYYAPRP, -0.949; under RRIRMRPPRLPRPRPRPMSVPRP, -0.00306. RRIRMRPPRLPRPRPRPFTTPRP: the “shrunken log2 fold change” value was -0.0216. Under RRIRARPPRLPRPRPRPRAGPRP stands 0.896.

Regarding RRIRNRPPRLPRPRPRPQVIPRP, the “shrunken log2 fold change” value was -0.000921. Under RRIRTRPPRLPRPRPRPYWHPRP stands -0.4. With RRIRFRPPRLPRPRPRPAVFPRP the figure was 0.259; with RRIRGRPPRLPRPRPRPNNIPRP, -0.163. With RRIRRRPPRLPRPRPRPRWVPRP the figure was 0.407; with RRIRFRPPRLPRPRPRPYWNPRP, -0.388. Take RRIRDRPPRLPRPRPRPKAWPRP: the “shrunken log2 fold change” value was determined as 0.107. Take RRIRPRPPRLPRPRPRPILEPRP: the “shrunken log2 fold change” value is -0.132. Under RRIRCRPPRLPRPRPRPEVVPRP stands 0.332. Under RRIRRRPPRLPRPRPRPNLAPRP stands 0.176; under RRIRWRPPRLPRPRPRPIYQPRP, -0.288; under RRIRGRPPRLPRPRPRPDMRPRP, 1.36. For RRIRERPPRLPRPRPRPHAEPRP, the “shrunken log2 fold change” value is -0.0335. Under RRIRTRPPRLPRPRPRPFMCPRP stands -0.126. Take RRIRFRPPRLPRPRPRPVVEPRP: the “shrunken log2 fold change” value was 0.258. Under RRIRKRPPRLPRPRPRPNHGPRP stands -0.0607; under RRIRHRPPRLPRPRPRPVVMPRP, -0.245; under RRIRKRPPRLPRPRPRPPTGPRP, 0.265. Under RRIRYRPPRLPRPRPRPMNIPRP stands -0.124; under RRIRGRPPRLPRPRPRPLEGPRP, 0.0436. For RRIRIRPPRLPRPRPRPYELPRP, the “shrunken log2 fold change” value is -0.0687.

On to RRIRNRPPRLPRPRPRPIQHPRP, for which the “shrunken log2 fold change” value is -0.0743. Under RRIRGRPPRLPRPRPRPYKGPRP stands -0.236; under RRIRARPPRLPRPRPRPFFCPRP, 0.2. With RRIRGRPPRLPRPRPRPYIFPRP the figure was -0.135.

The values above are taken from the supplement of paper PMC9112550, “Optimization of the antimicrobial peptide Bac7 by deep mutational scanning” (BMC Biology, 2022).
